Assay results published in patent US7112333B1, “T cell epitopes of ryegrass pollen allergen” (Heska Corporation, priority 1994, dated 2006).

Assays:
[1] = test system: Lol p V reactive T Cells; assay: T cell proliferation (tritiated thymidine) of Lol p V-primed T cell lines from grass-allergic patients; format: cell-based, human; conditions: one allergic patient; results not shown
Description: As discussed in Example 2, human T cell stimulating activity can be tested by culturing T cells obtained from an individual sensitive to Lol p V allergen, (i.e., an individual who has an IgE mediated immune response to Lol p V allergen) with a peptide derived from the allergen and determining whether proliferation of T cells occurs in response to the peptide as measured, e.g., by cellular uptake of tritiated thymidine. Stimulation indices for responses by T cells to peptides can be calculated as the maximum CPM in response to a peptide divided by the control CPM. A stimulation index (S.I.) equal to or greater than two times the background level is considered “positive”. […]
In addition, preferred peptides have a positivity index (P.I.) of at least about 60, more preferably about 100, more preferably at least about 200 and most preferably at least about 300. The positivity index for a peptide is determined by multiplying the mean T cell stimulation index by the percent of individuals, in a population of individuals sensitive to ryegrass pollen (e.g., preferably a population of at least 15 individuals, more preferably a population of at least 30 individuals or more), who have a T cell stimulation index to such peptide of at least 2.0. […]
This amount of priming antigen was determined to be optimal for the activation of T cells from most grass-allergic patients. […]

[2] = test system: human IgE; assay: Direct ELISA of human IgE binding to coated antigen
Method: (§1) To examine the importance of Lol p V, both direct and competition ELISA assays were performed. In the direct ELISA, 100 μl of 10 μg/ml of antigen in Phosphate Buffered Saline, pH 7.4 (PBS) was used to coat Immulon II (Dynatech, Chantilly, Va.) 96 well plates for 4 hours at room temperature (RT) or overnight (O/N) at 4° C. In between each step the plates were washed 3× with PBS-T. The excess coating antigen(s) was removed and the wells blocked with 300 μl/well 0.5% gelatin +1 mg/ml PVP in PBS for 1 hour at RT. Serially diluted patient plasma or the diluent PBS+0.05% Tween^−20 was incubated in at 100 μl/well in duplicate wells overnight at 4° C. […] Plates were read on a MR7000 plate reader (Dynatech, Chantilly, Va.) with a 450 nm filter. The absorbance levels of duplicate wells were averaged. The results were graphed as absorbance vs. dilution. […] The results are plotted as the absorbance vs. the log of the concentration of competing antigen.
For the direct ELISA, wells were coated with either soluble pollen extract (SPE) of ryegrass pollen or rLol p V (purified native Lol p V may have a small amount of Lol p I; use of recombinant material assures that the IgE binding is only to Lol p V) and human IgE antibody binding to these antigens was analyzed. […]

[3] = test system: human basophil mediator release; assay: Histamine release assay on whole blood of a ryegrass allergic individual; format: cell-based; conditions: one ryegrass allergic individual; whole heparinized blood; 37° C., 30 minutes; FIG. 12
Method: A histamine release assay was performed on one ryegrass allergic individual, using Lol p SPE and rLol p V as the added antigens. This assay is a measure of IgE reactivity through human basophil mediator release, and it is based on the detection of an acylated derivative of histamine using a specific monoclonal antibody (Morel, A. M. and Delaage, M. A.; 1988, J. Allergy Clin. Immunol. 82: 646–654). The reagents for this radioimmunoassay are sold as a kit by Amac Inc. (Westbrook, Me.). Whole heparinized blood drawn from a grass allergic individual and then […] aliquots were mixed with an equal amount of the grass antigens SPE and rLol p V at various concentrations or the diluent, PACM buffer (25 mM PIPES, 100 mM NaCl, 5 mM KCL, 4 mM CaCl2, 1 mM MgCl2, 0.003% HSA, pH7.3) in 1.5 ml polypropylene. The release reactions were carried out at 37° C. for 30 minutes. After this incubation the samples were centrifuged at 1500 RPM for 3 minutes and the supernatants removed. For the total histamine release, 0.1 ml of blood was added to 0.9 ml of PACM buffer, vortexed, and then boiled for 3 minutes. The samples were spun at 13000 RPM and the supernatant removed for analysis. Duplicate samples were used to measure total release. All of the supernatants are diluted 1:4 in acylation buffer and the remainder of the assay is performed according to the manufacturer's instructions.

[4] = test system: human IgE; assay: Competition ELISA for IgE binding to ryegrass pollen SPE; conditions: IgE source PHP-A or individual patient plasma; FIGS. 10 and 11
Method: as §1
In the competition assay, ELISA wells were coated with ryegrass pollen SPE and then allergic patient IgE binding was measured in the presence of competing ryegrass pollen SPE, purified native Lol p V, or rLol p V. The source of allergic IgE in this assay was PHP-A (FIG. 10) or individual patient plasma (FIG. 11). […]

[5] = test system: specific IgE; conditions: immunoblotting; WO 93/04174, page 65; cited from earlier work

Molecule | T cell proliferative response of one patient [1] | IgE binding in direct ELISA ([2]; IgE source PHP-A, PHP-B or four individual patients, FIGS. 6-9) | IgE binding in direct ELISA (reactivity to Lol p V peptides) ([2]; IgE source PHP-B, preliminary assay, FIG. 13a and 13b) | histamine release [3] | competition for IgE binding to ryegrass pollen SPE [4] | ryegrass pollen sensitive patients possessing specific IgE antibody that bound [5]
rLol p V: bacterially expressed recombinant Lol p V encoded by clone 12R, with His6 sequence (protein) MHHHHHHMAVQKYTVALFLAVALVAGPAASYAADAGYTPAAAATPATPAATPAAAGGKATTDEQKLLEDVNAGFKAAVAAAANAPPADKFKIFEAAFSESSKGLLATSAAKAPGLIPKLDTAYDVAYKAAEGATPEAKYDAFVTALTEALRVIAGALEVHAVKPATEEVPAAKIPTGELQIVDKIDAAFKIAATAANAAPTNDKFTVFESAFNKALNECTGGAYETYKFIPSLEAAVKQAYAATVAAAPEVKYAVFEAALTKAITAMTQAQKAGKPAAAAATGAATVATGAATAAAGAATAAAGGYKA | responds well | high IgE binding | very high IgE binding | strong histamine release over a wide concentration range |  | 
purified native Lol p V: Lol p V allergens affinity-purified from ryegrass pollen on mAb 1B9 column (protein, non-natural residues) ADAGYTPAAAATPATPAATPAAAGGKATTDEQKLLEDVNAGFKAAVAAAANAPPADKFKIFEAAFSESSKGLLATSAAKAPGLIPKLDTAYDVAYKAAEGATPEAKYDAFVTALTEALRVIAGALEVHAVKPATEEVPAAKIPTGELQIVDKIDAAFKIAATAANAAPTNDKFTVFESAFNKALNECTGGAYETYKFIPSLEAAVKQAYAATVAAAPEVKYAVFEAALTKAITAMTQAQKAGKPAAAAATGAATVATGAATAAAGAATAAAGGYKA | responds well |  |  |  |  | 
Lol p V: major ryegrass (Lolium perenne) pollen protein allergen (protein) MHHHHHHMAVQKYTVALFLAVALVAGPAASYAADAGYTPAAAATPATPAATPAAAGGKATTDEQKLLEDVNAGFKAAVAAAANAPPADKFKIFEAAFSESSKGLLATSAAKAPGLIPKLDTAYDVAYKAAEGATPEAKYDAFVTALTEALRVIAGALEVHAVKPATEEVPAAKIPTGELQIVDKIDAAFKIAATAANAAPTNDKFTVFESAFNKALNECTGGAYETYKFIPSLEAAVKQAYAATVAAAPEVKYAVFEAALTKAITAMTQAQKAGKPAAAAATGAATVATGAATAAAGAATAAAGGYKA |  |  |  |  | significant portion of IgE against Lol p SPE is specific for Lol p V | 80%
